Measurements: patent publication US20160237414A1 (CHILDREN S HOSPITAL MEDICAL CENTER, published 2016)
Substitutions are numbered along the chain they refer to. Names and notes keep the numbering of the source. Primed or numbered codes have the meaning given here. No end group written: not given here. FITC′ = fluorescein isothiocyanate (fluorescent probe)

T1: LIMP-2 in Gba1-/- fibroblasts (endogenous, detected by anti-LIMP2 immunofluorescence) (UniProt O35114 1-478, limits assumed)
T1 sequence (looked up): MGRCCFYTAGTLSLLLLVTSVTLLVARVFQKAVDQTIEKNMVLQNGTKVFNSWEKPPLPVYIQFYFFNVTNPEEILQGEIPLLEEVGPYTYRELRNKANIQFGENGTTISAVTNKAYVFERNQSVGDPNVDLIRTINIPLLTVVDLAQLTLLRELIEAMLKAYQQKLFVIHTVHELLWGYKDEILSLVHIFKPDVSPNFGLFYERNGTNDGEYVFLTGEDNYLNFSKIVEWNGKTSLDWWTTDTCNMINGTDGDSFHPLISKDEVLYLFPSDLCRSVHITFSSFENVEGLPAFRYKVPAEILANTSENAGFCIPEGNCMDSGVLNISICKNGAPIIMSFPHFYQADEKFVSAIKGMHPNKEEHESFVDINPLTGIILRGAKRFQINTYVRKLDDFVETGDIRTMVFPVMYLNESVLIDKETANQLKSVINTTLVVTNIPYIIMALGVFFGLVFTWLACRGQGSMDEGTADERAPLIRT

T2: Purified luminal domain LIMP-2 (ld-LIMP2) (UniProt Q14108 28-433, limits assumed)
T2 construct: domain: luminal domain; also called LIMP-2/SCARB2
T2 sequence (looked up): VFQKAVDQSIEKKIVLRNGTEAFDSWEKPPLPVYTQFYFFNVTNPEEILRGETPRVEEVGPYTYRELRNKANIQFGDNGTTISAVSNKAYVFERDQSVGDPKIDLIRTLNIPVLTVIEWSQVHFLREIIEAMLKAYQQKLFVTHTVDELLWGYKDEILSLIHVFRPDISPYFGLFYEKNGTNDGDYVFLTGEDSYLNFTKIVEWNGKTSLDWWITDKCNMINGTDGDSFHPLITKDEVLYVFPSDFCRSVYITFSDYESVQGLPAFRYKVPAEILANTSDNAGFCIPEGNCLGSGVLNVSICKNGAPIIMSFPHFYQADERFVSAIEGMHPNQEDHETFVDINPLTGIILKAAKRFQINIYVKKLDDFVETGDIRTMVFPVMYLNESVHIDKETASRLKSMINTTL

B1: ASPIIV (SEQ ID NO 16) (D399A) GCase (enzyme)
chain: ARPCIPKSFGYSSVVCVCNATYCDSFDPPTFPALGTFSRYESTRSGRRMELSMGPIQANHTGTGLLLTLQPEQKFQKVKGFGGAMTDAAALNILALSPPAQNLLLKSYFSEEGIGYNIIRVPMASCDFSIRTYTYADTPDDFQLHNFSLPEEDTKLKIPLIHRALQLAQRPVSLLASPWTSPTWLKTNGAVNGKGSLKGQPGDIYHQTWARYFVKFLDAYAEHKLQFWAVTAENEPSAGLLSGYPFQCLGFTPEHQRDFIARDLGPTLANSTHHNVRLLMLDDQRLLLPHWAKVVLTDPEAAKYVHGIAVHWYLDFLAPAKATLGETHRLFPNTMLFASEACVGSKFWEQSVRLGSWDRGMQYSHSIITNLLYHVVGWTDWNLALNPEGGPNWVRNFVASPIIVDITKDTFYKQPMFYHLGHFSKFIPEGSQRVGLVASQKNDLDAVALMHPDGSAVVVVLNRSSKDVPLTIKDPAVGFLETISPGYSIHTYLWRRQ
B2: DSPIAV (SEQ ID NO 18) (I403A) GCase (enzyme)
chain: B1 chain with A399D, I403A
B3: DSPAIV (SEQ ID NO 17) (I402A) GCase (enzyme)
chain: B1 chain with A399D, I402A
B4: DSPAAV (SEQ ID NO 19) (I402A+I403A) GCase, double mutant (enzyme)
chain: B1 chain with A399D, I402A, I403A
B5: AAA GCase (triple alanine mutant in the TKD sequence, amino acids 407-409) (enzyme)
chain: B1 chain with A399D, T407A, K408A, D409A
notes: Made from full length pCMV-GCase-GFP or YFP vectors; also called AAA mutant
B6: DSPIIV (SEQ ID NO 15) GCase peptide, FITC labeled (peptide)
peptide: DSPIIV-{FITC′}
notes: also called WT peptide; WT*
B7: ASPAAV peptide (triple mutant: alanines for D399, I402 and I403), FITC labeled (peptide)
peptide: ASPAAV-{FITC′}
notes: also called ASPAAP

Experiments:
[1] = target: T1, LIMP-2 in Gba1-/- fibroblasts …; assay: cell-based or functional assay
[2] = target: T2, Purified luminal domain LIMP-2 …; assay: in vitro immunoprecipitation of purified GCase with ldLIMP-2 (1:1) on anti-LIMP2 beads, immunoblot (FIG. 6B)
Description: Immunoprecipitation of GCases with mutations in the TKD sequence: For immunoblots, Gba1 knockout mouse fibroblasts (null/null) were transfected with the GBA1 constructs (WT or mutants) and expressed for 5 days. The GCases from harvested cell lysates were purified using a GCase antibody affinity column (Dynabeads protein G crosslinked (BS3) with rabbit anti-human GCase antibody). […] Aliquots of each step (loading, wash and eluent) were collected and analyzed on 12.5% SDS gels. Immunoblots were developed using anti-human GCase antibody and AP conjugated color development kits. Mock experiments with either non-LIMP2 proteins added or no GCases added, were used as control. The quantitations of these immunoprecipitation data were obtained from densitometry measurements of the gels. The no-LIMP-2 bars are the controls for comparison, since GCase was processed through all steps without LIMP-2 to account for any losses of GCase; About 50% of the GCase was lost during processing.

[3] = target: T2, Purified luminal domain LIMP-2 …; assay: fluorescence polarization, FITC peptide titrated, ldLIMP2 fixed at 50 nM (FIG. 7A)
Method: FIG. 7A-FIG. 7C: Binding and competition of fluorescent labeled or unlabeled DSPIIV (SEQ ID NO 15) GCase peptides to ldLIMP2. The change (δmP) in fluorescence polarization is plotted on the ordinate and the increasing concentrations of the various peptides are on the abscissa. FIG. 7A depicts saturation kinetics under conditions in which the concentration of ldLIMP2 (50 nM) was fixed. […] FIG. 7B depicts a similar study using unlabeled peptides as competitors. […] Each of the unlabeled peptides “competed” with the labeled peptides in the expected ratios. FIG. 7C depicts a competition study in which labeled (WT*) and unlabeled (WT) peptides were used in complementary competition studies.
Fluorescence Polarization: The DSPIIV (SEQ ID NO 15) and its mutants, and DDQRLLL (SEQ ID NO 14) peptides (FITC labeled or non-labeled) were synthesized (American Peptide Co., Vista, Calif.). Lyophilized peptides were solubilized in acetonitrile and then were diluted at least 10,000-fold into the reactions for fluorescence polarization assessments. The reactions were done at least in duplicate at various peptide and LIMP-2 concentrations (SpectraMax M5, Molecular Device). Fluorescence polarization data were collected and analyzed with SoftMax Pro 5.0 software. Reaction mixtures contained 100 mM phosphate, pH 6.8 and 1 mM DTT.

[4] = target: T2, Purified luminal domain LIMP-2 …; assay: peptide binding to ldLIMP2 at pH 6.8 (FIG. 9)
[5] = target: T2, Purified luminal domain LIMP-2 …; assay: peptide binding to ldLIMP-2 at pH 6.8 (FIG. 9)

Binder | % Secreted [1] | further results
B1 | 36% | 
B2 | 23% | 
B3 | 22% | 
B4 | 83% | 
B5 |  | binding result [2]: no binding
B6 |  | EC50 [3]: ~50 nM
B7 |  | binding relative to WT [4]: < 10 % of WT; percent decrease in binding [5]: ~90%
